Experimental findings from publication PMC6937242, “Characterization and engineering of broadly reactive monoclonal antibody against hepatitis B virus X protein that blocks its interaction with DDB1” (Scientific Reports, 2019) are described below.

The chains are these.
B1: Igκ-VHVL(2A7)-Fc (scFv, V domains shown)
VH: QVTLKESGPGILQPSQTLSLTCSFSGFSLSTSGMGVVWIRQPSGKGLEWLAHIWWDDDKYYNTALKSGLTISKDTSKNQVFLKIASVDTADTATYYCARMPYYDYDGGVAYWGQGTLVTVSA
VL: DIVMTQSPASLVVSLGQRATISCRASKSVSTSGYSYMYWYQQKPGQPPKLLIYLASNLESGVPARFSGSGSGTDFTLNIHPVEEEDAATYYCQHSRELPLTFGAGTKLELK
notes: as the VH of m1 (2A7 VH); linker, printed as (GlyGlyGlyGlySer)3; as the VL of m1 (2A7 VL1); also called Igκ-VHVL-Fc; 2A7-derived scFv; source: HEK293T, transfected; secreted into supernatant, or in cell lysate; not shown: Fc (human IgG1), C-terminal, kept
B2: mouse monoclonal antibody against HBx (anti-HBx 2A7) (antibody, V domains shown)
VH: B1 VH
VL: B1 VL
notes: 2A7 VH; 2A7 CH, mapped to mouse IGHG1 (immunoglobulin heavy constant gamma 1); 2A7 VL1; 2A7 CK, κ-type light chain constant region; IgG1 subclass, κ light chain (VL1/CK and VH/CH confirmed by LC-MS/MS); also called anti-HBx mAb 2A7; 2A7 mAb; source: SP2/0 hybridoma cell line, purified; also recovered from lysed Huh-7 or HepG2 cells after delivery with TR16-Tat
B3: recombinant 2A7 antibody (antibody, V domains shown)
VH: B1 VH
VL: B1 VL
notes: as the VH of m1 (2A7 VH); mouse IgG2a heavy chain constant fragment; as the VL of m1 (2A7 VL1); mouse κ light chain constant fragment; source: Expi293F cells, co-transfected, purified from culture supernatant (Protein A)

Where no end group is shown, it is not given here.

The first test deals with T1, biotinylated BPS HBx peptide a.a. 89–104 (Hepatitis B virus genotype B, isolate …, UniProt P20975, strain, also: biotinylated).
T1 construct: HBx of hepatitis B virus genotype B isolate BPS, a.a; a.a; also called peptide harboring a.a; source: synthetic peptide (GL Biochem)
T1 chain: LPKVLHKRTLGLSAMS
The experiment in a line: ELISA; biotinylated 16-mer HBx peptides captured on streptavidin-coated plates; secreted Igκ-VHVL-Fc added; HRP anti-human Fc pAb; OD450. The note with it: one partner purified. On the technique in general: ELISA stands for enzyme-linked immunosorbent assay.
Take B1: the binding result is “binds”.

The next test concerns the target T2, bacterially expressed BPS-encoded HBx protein (Hepatitis B virus genotype B, isolate …, UniProt P20975, strain).
T2 construct: HBx (X protein) of hepatitis B virus genotype B isolate BPS; also called recombinant HBx protein; BPS HBx (ELISA); source: bacterially expressed, purified under denaturing conditions
Description: ELISA; recombinant BPS HBx coated at 100 ng/well in bicarbonate/carbonate buffer pH 9.6; purified antibody added, 37 °C for 1 h; HRP anti-mouse pAb; OD450. As to conditions: both partners purified.
Turning to B2, the binding result is given as “binds”.

A further test has as its target T3, FLAG-tagged WT (genotype C isolate) HBx (Hepatitis B virus genotype C, isolate …, UniProt P0C686, strain).
T3 construct: 'WT' is here the name of an isolate, not 'wild type'; also called WT HBx; source: HEK293T, transfected, in lysate or in fixed cells; not shown: FLAG, N-terminal, kept
Description: Western blot; lysates of HEK293T cells transfected with FLAG-tagged HBx variants, 48 hours, resolved and blotted; probed with 2A7; anti-FLAG as control; densitometry normalised to anti-FLAG and to BPS HBx. The note with it: one partner purified. On the technique in general: A western blot detects proteins with antibodies after separation by electrophoresis.
For B2, the binding result is “binds”.

The next test addresses T1, biotinylated BPS HBx peptide a.a. 89–104. Description: ELISA; biotinylated 16-mer HBx peptides captured on streptavidin-coated plates at 500 ng/well in PBS; antibody added, 37 °C for 1 h; HRP anti-mouse pAb; OD450. The note with it: both partners purified.
With B2, the binding result is on record as “binds”. On the same count and under the same terms, for B3 the value was “binds”.

The next test addresses mouse monoclonal antibody against HBx (anti-HBx 2A7). Description: Western blot with densitometry. The note with it: HEK293T lysates; 2A7 signal adjusted against anti-FLAG signal, normalized against BPS HBx; parent: 100.
In the case of “FLAG-tagged wild type BPS HBx 77-79 (3 Ala)”, the percent of parent is 97%. Consider “FLAG-tagged wild type BPS HBx 80-82 (3 Ala)”, for which the percent of parent amounted to 450%. Still for that read-out and setting: to “FLAG-tagged wild type BPS HBx 98-100 (3 Ala)” belongs 140%. Consider “FLAG-tagged wild type BPS HBx 101-103 (3 Ala)”, for which the percent of parent was determined as 296%. Same read-out and setting: to “FLAG-tagged wild type BPS HBx 104-106 (3 Ala)” belongs 187%. On the same count and under the same terms, to “FLAG-tagged wild type BPS HBx H86A; R87A; N88A” belongs 334%; to FLAG-tagged wild type BPS HBx H94A, 0%.

Turning to FLAG-tagged wild type BPS HBx K91A, the percent of parent is 36%. Still for that read-out and setting: for FLAG-tagged wild type BPS HBx K95A the value was 0%; for “FLAG-tagged wild type BPS HBx K95A; R96A; T97A”, 0%. The same measure, in the same setting: to FLAG-tagged wild type BPS HBx L89A belongs 151%; to “FLAG-tagged wild type BPS HBx L89A; P90A; K91A”, 36%; to FLAG-tagged wild type BPS HBx L93A, 25%. With FLAG-tagged wild type BPS HBx L98A, the percent of parent worked out at 90%. Same read-out and setting: to FLAG-tagged wild type BPS HBx P90A belongs 7%.

On to FLAG-tagged wild type BPS HBx R96A, for which the percent of parent came to 81%.

For the molecule FLAG-tagged wild type BPS HBx T97A, the percent of parent was 99%. The same measure, in the same setting: for “FLAG-tagged wild type BPS HBx V83A; N84A” the value was 349%; for FLAG-tagged wild type BPS HBx V92A, 2%. Regarding “FLAG-tagged wild type BPS HBx V92A; L93A; H94A”, the percent of parent amounted to 0%.

Another test deals with T4, FLAG-tagged wild type BPS HBx (Hepatitis B virus genotype B, isolate …, UniProt P20975, strain).
T4 construct: HBx (X protein) of hepatitis B virus genotype B isolate BPS, 154 a.a; also called FLAG-HBx (wild type); wild-type HBx; source: HEK293T, transfected, in lysate or in fixed cells; HepG2, transfected, in lysate; not shown: FLAG, N-terminal, kept
The experiment in a line: co-IP; HEK293T co-transfected with Igκ-VHVL-Fc and FLAG-tagged wild type or mutant BPS HBx; lysate; anti-FLAG as capture antibody; blots with anti-hFc and anti-FLAG. As to conditions: partners not purified.
Consider B1, for which the binding result is reported as “binds”.
